According to patent US20190374506A1 (BETH ISREAL DEACONESS MEDICAL CENTER, published 2019):

What was measured:
[1] = molecular target: T1, WW domain containing E3 ubiquitin protein ligase 1 (WWP1) (human, UniProt Q9H0M0 1-922, limits assumed); test: immunoprecipitation of exogenous PTEN from DU145 cells, mass spectrometry (FIG. 2A)
T1 construct: also called endogenous WWP1; WW domain-containing protein-1
From the text: (§1) FIG. 2A is a Western blot. Lysates from DU145 cells transfected with HA-PTEN were immunoprecipitated with an anti-PTEN antibody followed by mass-spectrometric peptide sequencing. WWP1 and NEDD4-1 were identified.
(§2) In order to identify the E3 ligases that induce PTEN atypical K27-linked poly-ubiquitination, exogenous PTEN was immunoprecipitated from DU145 cells, followed by identification of the proteins that interacted with PTEN by mass spectrometry (FIG. 2A; FIG. 18).

[2] = molecular target: T2, ATP dependent RNA helicase A (human (endogenous protein of DU145 …, UniProt Q08211)); test: anti-PTEN immunoprecipitation from DU145 cells transfected with HA-PTEN, SDS-PAGE, mass-spectrometric peptide sequencing of the bands (association in the precipitate)
T2 construct: endogenous, identified by mass spectrometry
T2 sequence (Q08211 whole entry): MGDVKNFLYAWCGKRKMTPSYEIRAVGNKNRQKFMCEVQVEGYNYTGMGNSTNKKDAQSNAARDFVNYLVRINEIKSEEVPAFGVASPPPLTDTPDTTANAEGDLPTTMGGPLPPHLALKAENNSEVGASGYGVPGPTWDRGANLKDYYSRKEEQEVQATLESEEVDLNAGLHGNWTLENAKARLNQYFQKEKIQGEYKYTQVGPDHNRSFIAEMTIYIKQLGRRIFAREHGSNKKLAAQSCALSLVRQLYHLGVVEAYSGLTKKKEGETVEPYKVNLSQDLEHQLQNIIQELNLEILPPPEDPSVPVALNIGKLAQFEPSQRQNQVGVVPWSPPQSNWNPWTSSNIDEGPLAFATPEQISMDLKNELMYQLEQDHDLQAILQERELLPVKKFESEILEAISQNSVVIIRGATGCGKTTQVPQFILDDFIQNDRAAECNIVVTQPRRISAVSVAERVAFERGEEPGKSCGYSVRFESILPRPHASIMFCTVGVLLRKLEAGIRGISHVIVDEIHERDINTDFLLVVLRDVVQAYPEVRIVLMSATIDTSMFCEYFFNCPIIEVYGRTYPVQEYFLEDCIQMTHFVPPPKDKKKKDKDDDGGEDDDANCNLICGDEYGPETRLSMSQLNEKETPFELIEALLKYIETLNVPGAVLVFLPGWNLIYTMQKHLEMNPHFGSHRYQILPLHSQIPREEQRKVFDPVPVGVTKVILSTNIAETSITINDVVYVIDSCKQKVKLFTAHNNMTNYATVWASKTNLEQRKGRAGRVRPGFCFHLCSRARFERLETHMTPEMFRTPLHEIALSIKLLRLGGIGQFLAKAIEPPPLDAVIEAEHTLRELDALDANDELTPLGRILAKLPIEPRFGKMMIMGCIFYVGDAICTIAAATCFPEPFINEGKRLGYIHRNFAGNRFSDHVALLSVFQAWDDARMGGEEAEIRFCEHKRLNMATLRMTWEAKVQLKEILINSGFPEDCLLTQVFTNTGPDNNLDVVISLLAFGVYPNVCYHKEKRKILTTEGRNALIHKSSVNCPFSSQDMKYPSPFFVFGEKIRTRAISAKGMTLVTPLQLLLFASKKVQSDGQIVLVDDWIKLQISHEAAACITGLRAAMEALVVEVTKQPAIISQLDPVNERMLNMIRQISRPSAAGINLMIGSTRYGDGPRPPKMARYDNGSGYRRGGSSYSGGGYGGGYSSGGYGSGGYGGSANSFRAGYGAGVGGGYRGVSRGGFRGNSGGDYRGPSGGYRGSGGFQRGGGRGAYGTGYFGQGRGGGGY
From the text: as §1, §2

[3] = molecular target: Isoform 2 of Telomere-associated protein RIF1; test: as above
Chain of Isoform 2 of Telomere-associated protein RIF1 (chain, as listed by the source limits assumed): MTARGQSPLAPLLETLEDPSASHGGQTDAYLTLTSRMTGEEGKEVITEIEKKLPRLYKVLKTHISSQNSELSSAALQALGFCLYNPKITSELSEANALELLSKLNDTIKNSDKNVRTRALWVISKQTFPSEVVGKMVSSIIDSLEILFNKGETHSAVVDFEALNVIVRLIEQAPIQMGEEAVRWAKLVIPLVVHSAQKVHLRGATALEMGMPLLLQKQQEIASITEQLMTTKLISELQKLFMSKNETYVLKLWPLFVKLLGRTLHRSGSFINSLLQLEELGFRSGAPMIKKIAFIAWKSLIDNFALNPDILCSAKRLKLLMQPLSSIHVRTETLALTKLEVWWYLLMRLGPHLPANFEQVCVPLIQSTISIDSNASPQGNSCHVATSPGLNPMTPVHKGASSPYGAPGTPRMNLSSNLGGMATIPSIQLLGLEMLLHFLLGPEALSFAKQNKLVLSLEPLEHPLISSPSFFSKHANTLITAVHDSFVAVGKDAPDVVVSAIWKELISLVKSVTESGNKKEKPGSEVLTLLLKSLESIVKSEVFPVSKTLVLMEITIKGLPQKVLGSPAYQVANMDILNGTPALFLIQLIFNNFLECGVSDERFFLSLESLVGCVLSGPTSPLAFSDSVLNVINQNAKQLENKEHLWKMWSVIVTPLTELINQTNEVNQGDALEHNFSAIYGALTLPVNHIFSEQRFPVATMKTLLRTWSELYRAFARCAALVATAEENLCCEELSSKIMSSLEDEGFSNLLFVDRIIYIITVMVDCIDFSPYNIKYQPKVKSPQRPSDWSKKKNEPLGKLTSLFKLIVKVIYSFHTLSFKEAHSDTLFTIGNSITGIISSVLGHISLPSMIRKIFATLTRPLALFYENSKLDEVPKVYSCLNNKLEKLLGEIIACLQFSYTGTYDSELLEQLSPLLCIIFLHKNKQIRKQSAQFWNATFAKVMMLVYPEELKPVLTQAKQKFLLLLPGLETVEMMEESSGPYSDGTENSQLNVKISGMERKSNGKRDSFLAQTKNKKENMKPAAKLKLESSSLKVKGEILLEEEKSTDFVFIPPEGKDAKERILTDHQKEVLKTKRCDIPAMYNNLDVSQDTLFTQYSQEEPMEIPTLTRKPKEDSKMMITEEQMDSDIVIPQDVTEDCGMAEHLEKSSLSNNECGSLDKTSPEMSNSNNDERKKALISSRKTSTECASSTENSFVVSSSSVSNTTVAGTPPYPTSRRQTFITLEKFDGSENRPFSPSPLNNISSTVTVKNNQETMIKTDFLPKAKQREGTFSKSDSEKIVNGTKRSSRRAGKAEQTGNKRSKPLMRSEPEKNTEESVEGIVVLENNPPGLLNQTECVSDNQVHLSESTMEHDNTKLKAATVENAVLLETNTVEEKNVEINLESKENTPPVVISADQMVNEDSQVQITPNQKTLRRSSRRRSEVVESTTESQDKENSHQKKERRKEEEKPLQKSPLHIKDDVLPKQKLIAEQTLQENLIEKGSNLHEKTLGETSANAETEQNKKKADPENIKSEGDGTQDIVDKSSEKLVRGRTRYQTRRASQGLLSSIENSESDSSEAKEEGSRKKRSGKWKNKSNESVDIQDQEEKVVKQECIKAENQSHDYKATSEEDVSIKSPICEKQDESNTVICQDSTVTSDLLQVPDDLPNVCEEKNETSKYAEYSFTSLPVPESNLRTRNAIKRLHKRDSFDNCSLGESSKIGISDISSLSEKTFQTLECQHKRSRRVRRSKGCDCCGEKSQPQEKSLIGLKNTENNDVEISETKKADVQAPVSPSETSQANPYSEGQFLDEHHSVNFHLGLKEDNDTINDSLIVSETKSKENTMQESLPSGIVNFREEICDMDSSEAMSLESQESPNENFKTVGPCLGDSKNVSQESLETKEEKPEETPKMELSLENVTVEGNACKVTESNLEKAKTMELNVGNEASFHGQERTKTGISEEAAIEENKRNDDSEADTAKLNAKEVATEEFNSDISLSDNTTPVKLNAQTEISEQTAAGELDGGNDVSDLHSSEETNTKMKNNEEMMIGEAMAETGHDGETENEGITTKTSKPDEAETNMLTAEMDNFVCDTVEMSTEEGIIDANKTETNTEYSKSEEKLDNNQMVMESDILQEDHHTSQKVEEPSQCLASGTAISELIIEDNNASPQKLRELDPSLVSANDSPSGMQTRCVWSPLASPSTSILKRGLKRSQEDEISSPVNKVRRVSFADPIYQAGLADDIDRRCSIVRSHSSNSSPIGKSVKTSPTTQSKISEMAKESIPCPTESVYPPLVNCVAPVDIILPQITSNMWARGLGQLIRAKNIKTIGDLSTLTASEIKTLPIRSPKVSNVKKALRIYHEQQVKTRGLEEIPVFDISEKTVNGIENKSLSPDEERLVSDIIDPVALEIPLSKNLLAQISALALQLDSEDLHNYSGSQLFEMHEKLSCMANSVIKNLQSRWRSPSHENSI
From the text: as §1, §2

[4] = molecular target: T3, Sperm-associated antigen 5 (human (endogenous protein of DU145 …, UniProt Q96R06)); test: as above
T3 construct: endogenous, identified by mass spectrometry
T3 sequence (looked up): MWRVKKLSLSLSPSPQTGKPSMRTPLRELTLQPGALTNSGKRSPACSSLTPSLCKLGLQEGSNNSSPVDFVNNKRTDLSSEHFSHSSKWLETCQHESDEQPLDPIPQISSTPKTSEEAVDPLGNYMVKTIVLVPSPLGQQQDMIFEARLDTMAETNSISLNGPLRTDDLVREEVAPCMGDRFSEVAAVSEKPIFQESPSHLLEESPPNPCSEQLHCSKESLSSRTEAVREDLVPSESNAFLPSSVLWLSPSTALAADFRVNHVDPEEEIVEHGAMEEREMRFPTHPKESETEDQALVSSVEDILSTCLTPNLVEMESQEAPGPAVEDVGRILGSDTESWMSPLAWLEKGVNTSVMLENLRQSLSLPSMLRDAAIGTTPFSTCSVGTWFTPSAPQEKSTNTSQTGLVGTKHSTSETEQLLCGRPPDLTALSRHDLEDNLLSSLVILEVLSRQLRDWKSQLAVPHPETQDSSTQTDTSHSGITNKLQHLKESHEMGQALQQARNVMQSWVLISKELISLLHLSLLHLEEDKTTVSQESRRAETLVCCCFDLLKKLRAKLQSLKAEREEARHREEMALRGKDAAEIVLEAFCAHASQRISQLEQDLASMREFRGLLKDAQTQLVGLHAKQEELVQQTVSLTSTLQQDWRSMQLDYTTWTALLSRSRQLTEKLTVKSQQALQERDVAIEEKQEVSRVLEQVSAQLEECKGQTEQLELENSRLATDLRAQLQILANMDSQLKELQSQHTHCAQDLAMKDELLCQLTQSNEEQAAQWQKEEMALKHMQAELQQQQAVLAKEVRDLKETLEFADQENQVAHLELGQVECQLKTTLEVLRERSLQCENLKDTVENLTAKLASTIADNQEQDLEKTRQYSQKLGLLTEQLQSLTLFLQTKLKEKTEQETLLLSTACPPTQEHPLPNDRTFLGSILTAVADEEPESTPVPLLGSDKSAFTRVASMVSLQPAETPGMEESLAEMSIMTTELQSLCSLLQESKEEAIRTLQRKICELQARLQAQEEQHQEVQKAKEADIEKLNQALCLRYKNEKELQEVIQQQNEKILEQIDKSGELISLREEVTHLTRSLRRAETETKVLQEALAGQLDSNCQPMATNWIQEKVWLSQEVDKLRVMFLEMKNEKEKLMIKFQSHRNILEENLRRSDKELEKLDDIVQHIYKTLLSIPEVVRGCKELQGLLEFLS
From the text: as §1, §2

[5] = molecular target: T4, Poly [ADP-ribose] polymerase 1 (human (endogenous protein of DU145 …, UniProt P09874)); test: as above
T4 construct: endogenous, identified by mass spectrometry
T4 sequence (P09874 2-1014 limits assumed): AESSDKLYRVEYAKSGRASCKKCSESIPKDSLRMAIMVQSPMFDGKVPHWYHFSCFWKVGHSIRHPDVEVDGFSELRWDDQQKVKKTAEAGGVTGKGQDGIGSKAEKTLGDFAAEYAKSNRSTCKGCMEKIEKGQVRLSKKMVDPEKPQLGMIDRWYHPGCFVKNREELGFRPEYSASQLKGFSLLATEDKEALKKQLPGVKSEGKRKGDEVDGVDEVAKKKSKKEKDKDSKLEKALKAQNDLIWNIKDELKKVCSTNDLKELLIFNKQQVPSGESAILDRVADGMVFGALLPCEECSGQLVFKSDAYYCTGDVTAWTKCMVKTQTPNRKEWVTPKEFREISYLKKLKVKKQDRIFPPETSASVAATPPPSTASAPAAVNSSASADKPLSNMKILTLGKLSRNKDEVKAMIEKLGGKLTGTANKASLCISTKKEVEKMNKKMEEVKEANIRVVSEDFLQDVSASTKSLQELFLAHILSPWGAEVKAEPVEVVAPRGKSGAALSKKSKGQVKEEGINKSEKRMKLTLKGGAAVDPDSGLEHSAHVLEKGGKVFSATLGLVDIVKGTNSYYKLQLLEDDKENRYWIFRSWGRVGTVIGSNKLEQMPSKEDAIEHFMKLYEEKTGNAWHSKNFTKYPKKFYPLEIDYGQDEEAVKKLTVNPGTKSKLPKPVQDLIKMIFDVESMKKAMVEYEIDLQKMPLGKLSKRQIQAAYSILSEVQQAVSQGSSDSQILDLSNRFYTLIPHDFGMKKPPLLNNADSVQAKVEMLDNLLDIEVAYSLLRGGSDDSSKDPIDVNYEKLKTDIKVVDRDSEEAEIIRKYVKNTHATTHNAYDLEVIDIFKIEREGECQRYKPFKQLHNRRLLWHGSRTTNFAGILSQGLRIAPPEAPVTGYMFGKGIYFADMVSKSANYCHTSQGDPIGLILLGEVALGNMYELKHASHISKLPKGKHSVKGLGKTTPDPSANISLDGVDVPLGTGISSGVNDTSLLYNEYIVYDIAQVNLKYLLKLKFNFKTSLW
From the text: as §1, §2

[6] = molecular target: the molecule itself; test: self-association of PTEN in Wwp1-/- against Wwp1+/+ MEFs, non-reducing/non-denaturing gel (FIG. 5F); similar results in Nedd4-/- MEFs (FIG. 5I)
From the text: Similar results were also obtained in Nedd4^{-/-} MEFs (FIG. 5I, FIG. 5J).
(§3) Western Blotting and Immunoprecipitation. For western blotting, cells were lysed in RIPA buffer (Boston BioProducts) supplemented with protease (Roche) and phosphatase (Roche) inhibitor. Proteins were separated on NuPAGE 4-12% Bis-Tris gradient gels (Invitrogen), transferred to polyvinylidine difluoride membranes (Immobilon P, Millipore) and the blots were probed with the indicated antibodies. For immunoprecipitation, PC3, 293T and MEF cells were transfected with the indicated expression vectors by using LIPOFECTAMIN 2000 (Life Technologies). 24 hours after transfection, cells were lysed in RIPA buffer with protease (Roche) and phosphatase (Roche) inhibitor. 500 μg of total lysates were pre-cleared for 30 minutes at 4° C., and then immunoprecipitated with anti-Myc (Cell Signaling Technology 9B11, 1:500), or anti-PTEN (Cell Signaling Technology 9559, 1:500) antibody overnight at 4° C. The Protein-A or Protein-G sepharose beads (GE Healthcare) were then added and incubated for another 2 hours. The immunoprecipitates were washed with RIPA buffer three times. In denaturing conditions, standard Laemmli-Buffer with 5% final concentration of β-mercaptoethanol was added to the samples, which were then boiled and separated on NuPAGE 4-12% Bis-Tris gradient gels (Invitrogen). […]

[7] = molecular target: T5, Phosphatase And Tensin Homolog Deleted On Chromosome Ten (PTEN) (human, UniProt P60484 1-403); test: co-immunoprecipitation with anti-NEDD4 antibody from PWRE-1 cell lysates after 16 h normoxia (N) or hypoxia (H), western blot
T5 construct: also called endogenous PTEN; PTEN WT
Protocol: FIG. 13D is a Western blot showing that NEDD4-1 switches its interaction proteins under different physiological conditions. PWRE-1 cells were cultured in normoxic or hypoxic conditions for 16 hours. Total cell lysates were immunoprecipitated with anti-NEDD4 antibody, and then examined by western blot with indicated antibodies.
as §3, with “times.” for “times. In denaturing conditions, standard Laemmli-Buffer with 5% final concentration of β-mercaptoethanol was added to the samples, which were then boiled and separated on NuPAGE 4-12% Bis-Tris gradient gels (Invitrogen).”

Flag-WWP1 = molecular target: T6, Flag-WWP1 (Homo sapiens (Human), UniProt Q9H0M0 1-922); test: recombinant Flag-WWP1 incubated with immunopurified recombinant NEDD4-1, western blot (FIG. 2C)
T6 construct: also called full-length Flag-WWP1; recombinant Flag-WWP1; not shown: Flag tag
Protocol: FIG. 2C is a Western blot showing that WWP1 binds NEDD4-1 in vitro. Recombinant Flag-WWP1 were incubated with immunopurified recombinant NEDD4-1, and then analysed by western blot.

[8] = molecular target: T1, WW domain containing E3 ubiquitin …; test: anti-PTEN immunoprecipitation from DU145 cells, western blot (FIG. 2B); both ligases found in the same complex

Measured: binding result

B1: HA-PTEN (enzyme)
chain: not shown
notes: Expressed in DU145 cells and immunoprecipitated with anti-PTEN antibody for mass spectrometry; also called exogenous PTEN; pcDNA3-HA-PTEN; not shown: HA tag
binds: [1] | [2] | [3] | [4] | [5]

B2: PTEN of MEFs (mouse) (enzyme, UniProt O08586 2-403, looked up)
chain: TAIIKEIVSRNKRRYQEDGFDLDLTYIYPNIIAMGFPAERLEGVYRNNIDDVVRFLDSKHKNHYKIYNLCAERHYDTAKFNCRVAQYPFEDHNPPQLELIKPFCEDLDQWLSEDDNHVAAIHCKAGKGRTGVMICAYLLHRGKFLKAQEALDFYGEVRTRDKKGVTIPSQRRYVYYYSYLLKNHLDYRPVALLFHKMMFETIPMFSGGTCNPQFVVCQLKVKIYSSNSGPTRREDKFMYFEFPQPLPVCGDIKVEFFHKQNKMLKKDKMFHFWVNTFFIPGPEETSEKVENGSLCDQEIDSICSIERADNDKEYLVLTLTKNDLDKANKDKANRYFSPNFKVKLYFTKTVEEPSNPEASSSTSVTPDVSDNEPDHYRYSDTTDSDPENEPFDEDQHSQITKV
notes: also called PTEN in Wwp1+/+ and Wwp1-/- MEFs; PTEN in Nedd4+/+ and Nedd4-/- MEFs
binds: [6]

B3: Neural Precursor Cell Expressed Developmentally Down-Regulated Protein 4 polypeptide (NEDD4-1) (enzyme)
chain: MATCAVEVFGLLEDEENSRIVRVRVIAGIGLAKKDILGASDPYVRVTLYDPMNGVLTSVQTKTIKKSLNPKWNEEILFRVHPQQHRLLFEVFDENRLTRDDFLGQVDVPLYPLPTENPRLERPYTFKDFVLHPRSHKSRVKGYLRLKMTYLPKTSGSEDDNAEQAEELEPGWVVLDQPDAACHLQQQQEPSPLPPGWEERQDILGRTYYVNHESRRTQWKRPTPQDNLTDAENGNIQLQAQRAFTTRRQISEETESVDNRESSENWEIIREDEATMYSNQAFPSPPPSSNLDVPTHLAEELNARLTIFGNSAVSQPASSSNHSSRRGSLQAYTFEEQPTLPVLLPTSSGLPPGWEEKQDERGRSYYVDHNSRTTTWTKPTVQATVETSQLTSSQSSAGPQSQASTSDSGQQVTQPSEIEQGFLPKGWEVRHAPNGRPFFIDHNTKTTTWEDPRLKIPAHLRGKTSLDTSNDLGPLPPGWEERTHTDGRIFYINHNIKRTQWEDPRLENVAITGPAVPYSRDYKRKYEFFRRKLKKQNDIPNKFEMKLRRATVLEDSYRRIMGVKRADFLKARLWIEFDGEKGLDYGGVAREWFFLISKEMFNPYYGLFEYSATDNYTLQINPNSGLCNEDHLSYFKFIGRVAGMAVYHGKLLDGFFIRPFYKMMLHKPITLHDMESVDSEYYNSLRWILENDPTELDLRFIIDEELFGQTHQHELKNGGSEIVVTNKNKKEYIYLVIQWRFVNRIQKQMAAFKEGFFELIPQDLIKIFDENELELLMCGLGDVDVNDWREHTKYKNGYSANHQVIQWFWKAVLMMDSEKRIRLLQFVTGTSRVPMNGFAELYGSNGPQSFTVEQWGTPEKLPRAHTCFNRLDLPPYESFEELWDKLQMAIENTQGFDGVD
notes: also called endogenous NEDD4-1; immunopurified recombinant NEDD4-1
binds: [7] | Flag-WWP1 | [8]
